For three proteins, Km and kcat results are on record in article PMC12247033, “Exploring the Stability and Substrate Profile of Transaminase from Silicibacter pomeroyi with Ancestral Sequence Reconstruction” (Chembiochem, 2025).

Substrate in series [1]: C[C@H](N)c1ccccc1
Nature of the series: purified protein. It is filed as biochemical, Ruegeria pomeroyi. Particulars: co-substrate sodium pyruvate; 5 mM PLP; (S)-PEA 0.1-15 mM.

Substrate in series [2]: C[C@H](N)c1ccccc1
Put plainly: purified protein. The format is biochemical, synthetic construct. Conditions: co-substrate sodium pyruvate; 5 mM PLP; (S)-PEA 0.1-15 mM.

B1: Sp-ATA (Ruegeria pomeroyi DSS-3) (protein)
chain: MATITNHMPTAELQALDAAHHLHPFSANNALGEEGTRVITRARGVWLNDSEGEEILDAMAGLWCVNIGYGRDELAEVAARQMRELPYYNTFFKTTHVPAIALAQKLAELAPGDLNHVFFAGGGSEANDTNIRMVRTYWQNKGQPEKTVIISRKNAYHGSTVASSALGGMAGMHAQSGLIPDVHHINQPNWWAEGGDMDPEEFGLARARELEEAILELGENRVAAFIAEPVQGAGGVIVAPDSYWPEIQRICDKYDILLIADEVICGFGRTGNWFGTQTMGIRPHIMTIAKGLSSGYAPIGGSIVCDEVAHVIGKDEFNHGYTYSGHPVAAAVALENLRILEEENILDHVRNVAAPYLKEKWEALTDHPLVGEAKIVGMMASIALTPNKASRAKFASEPGTIGYICRERCFANNLIMRHVGDRMIISPPLVITPAEIDEMFVRIRKSLDEAQAEIEKQGLMKSAA
notes: wild type, pET22b(+), E. coli BL21(DE3), Ni-NTA purified (His-tag), homodimer
B1: in series [1], the Km turned out to be 3.64 ± 0.31 mM and the kcat is 6.33 ± 0.19 s⁻¹.

B2: N49 (synthetic construct) (protein)
chain: MSMSTITNHMPTAELQALDAAHHMHPFTTNNELAEKGARVITRAKGVWLTDSEGEEILDAMAGLWCVNIGYGRDELAEVAARQMRELPYYNTFFQTTHVPAIALAAKLAELAPGDLNHVFFAGGGSEANDTNIRMVRTYWAEKGKPEKNIIISRKNAYHGSTVGSASLGGMAGMHAQGGLPIPDIHHIDQPNWWAEGRPGDTGMTPEEFGLARARELEQAILELGEDRVAAFIAEPVQGAGGVIVAPDTYWPEIQRICDKYEILLIADEVICGFGRTGNWFGSQTMGIRPHIMTIAKGLSSGYAPIGGSIVCDEVAEVIIGGKCEFNHGYTYSGHPVAAAVALENLRILEEENIIDHVRNVAAPYLKEKWEALTDHPLVGEAKIVGMMGSIALTPDKATRAAFASEPGTVGYICRERCFANNLVMRHVGDRMIISPPLVITPEEIDTLIERARKSLDEAHAELKRQGLMKAAG
notes: pET22b(+), E. coli BL21(DE3), Ni-NTA purified
As for B2, in series [2], the Km was 2.02 ± 0.19 mM and the kcat came to 1.10 ± 0.03 s⁻¹.

B3: N50 (synthetic construct) (protein)
chain: MSMSTITNHMPTAELQALDAAHHMHPFSTNNELAEEGVRVITRAKGVWLTDSEGEEILDAMAGLWCVNIGYGRDELAEVAARQMRELPYYNTFFKTTHVPAIALAQKLAELAPGDLNHVFFAGGGSEANDTNIRMVRTYWAEKGKPEKNVIISRKNAYHGSTVGSASLGGMAGMHAQGGIPIPDIHHINQPNWWAEGRPGDTGMTPEEFGLARARELEEAILELGEDRVAAFIAEPVQGAGGVIVAPDTYWPEIQRICDKYEILLIADEVICGFGRTGNWFGSQTMGIRPHIMTIAKGLSSGYAPIGGSIVCDEVAEVIIGGKCEFNHGYTYSGHPVAAAVALENLRILEEENIIDHVRNVAAPYLKEKWEALTDHPLVGEAKIVGMMGSIALTPDKATRAKFASEPGTIGYICRERCFANNLVMRHVGDRMIISPPLVITPEEIDEMFVRIRKSLDEAHAEILRQGLMKAAG
notes: as for B2
Consider B3, for which, in series [2], the Michaelis-Menten constant (Km) was determined as 6.22 ± 1.01 mM and the kcat was determined as 0.39 ± 0.03 s⁻¹.
